By Kd is commonly meant the equilibrium constant for the complex coming apart. Low values mean tighter binding, high ones weaker binding. Broadly, the EC50 is the concentration that produces a half-maximal response. The low end stands for higher potency in that assay, the high end for lower potency in that assay.

The target of test [1] is VEGF (UniProt P15692). Description: SPR; Biacore, n = 3.
The target in test [2] is VEGF (UniProt P15692). Description: ELISA; direct binding ELISA to IL-17A or VEGF, measured in duplicate, n = 2; who was coated is not told. In general terms: ELISA stands for enzyme-linked immunosorbent assay.
Test [3] concerns the target VEGF (UniProt P15692).

Sequence of VEGF (P15692 whole entry): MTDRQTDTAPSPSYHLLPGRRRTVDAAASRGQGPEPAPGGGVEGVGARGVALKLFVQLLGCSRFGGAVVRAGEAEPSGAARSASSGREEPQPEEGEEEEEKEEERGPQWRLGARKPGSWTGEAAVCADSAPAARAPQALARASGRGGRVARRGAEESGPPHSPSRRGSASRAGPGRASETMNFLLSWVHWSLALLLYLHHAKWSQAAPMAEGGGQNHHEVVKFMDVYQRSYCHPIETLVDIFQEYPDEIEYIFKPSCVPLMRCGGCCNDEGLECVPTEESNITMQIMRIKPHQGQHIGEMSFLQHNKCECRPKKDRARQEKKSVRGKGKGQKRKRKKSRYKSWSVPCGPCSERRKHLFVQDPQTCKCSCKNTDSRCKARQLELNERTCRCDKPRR

B1: bispecific fusion protein 17V05 (bispecific antibody, V domains shown)
VH: EVQLVESGGGLVQPGGSLRLSCAASGFTFSSFDMSWGRQAPGKRLEWVAFMSSGGSTYYPDSVKGRFTISRDNSKNTLYLQMNSLRAEDTAVYYCARGERYGSYWGQGTLVTVSS
VL: DIQMTQSPSSLSASVGDRVTITCKASDHINNWLAWYQQKPGKAPKLLISGATSLETGVPSRFSGSGSGTDYTLTISSLQPEDFATYYCQQYWSTPFTFGSGTKLEIK
In the case of B1, the Kd with VEGF [1] came to 0.011 nM. For the same molecule, in the test with VEGF [2], the EC50 is 0.37 nM. Moreover, in the test with VEGF [3], the luciferase signal of KDR/NFAT-RE HEK293 reporter cells with 30 ng/mL VEGF; blocks signalling of VEGF through KDR amounted to 0.26 nM.

For the origin of these results see publication PMC11681983.
